Source: patent US20180112005A1 (published 2018)
Changes are numbered by the printed parent chain.

T1: human Notch4 NRR (human, UniProt Q99466 1170-1447, limits assumed)
T1 construct: domain: NRR; It is split here into the two species; also called human NRR4
T1 sequence (looked up): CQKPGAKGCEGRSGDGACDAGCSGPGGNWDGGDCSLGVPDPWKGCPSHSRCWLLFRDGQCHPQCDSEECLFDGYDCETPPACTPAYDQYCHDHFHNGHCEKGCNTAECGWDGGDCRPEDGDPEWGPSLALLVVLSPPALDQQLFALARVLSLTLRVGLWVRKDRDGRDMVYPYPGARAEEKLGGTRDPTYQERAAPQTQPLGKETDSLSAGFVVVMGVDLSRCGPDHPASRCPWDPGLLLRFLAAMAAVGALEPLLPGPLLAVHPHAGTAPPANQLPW

T2: human Notch2 NRR (human, UniProt Q04721 1425-1677)
T2 construct: domain: NRR; It is split here into the two species; also called human NRR2
T2 sequence (looked up): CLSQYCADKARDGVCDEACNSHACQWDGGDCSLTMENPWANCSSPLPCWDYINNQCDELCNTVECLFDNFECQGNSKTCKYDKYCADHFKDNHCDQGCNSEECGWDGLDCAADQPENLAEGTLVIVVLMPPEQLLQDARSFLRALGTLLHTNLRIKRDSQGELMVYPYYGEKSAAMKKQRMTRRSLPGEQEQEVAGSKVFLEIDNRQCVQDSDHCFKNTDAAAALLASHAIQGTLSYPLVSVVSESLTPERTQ

T3: murine Notch4 NRR (mouse, UniProt P31695 1166-1443, limits assumed)
T3 construct: domain: NRR; It is split here into the two species; also called mouse NRR4
T3 sequence (looked up): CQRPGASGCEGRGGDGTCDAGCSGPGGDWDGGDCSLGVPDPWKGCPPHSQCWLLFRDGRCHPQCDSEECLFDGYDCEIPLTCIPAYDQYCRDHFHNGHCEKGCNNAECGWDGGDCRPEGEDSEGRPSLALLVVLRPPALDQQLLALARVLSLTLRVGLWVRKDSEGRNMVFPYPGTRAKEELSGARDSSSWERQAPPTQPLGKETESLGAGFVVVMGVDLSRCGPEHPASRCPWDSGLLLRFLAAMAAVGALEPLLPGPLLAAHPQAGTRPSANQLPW

T4: murine Notch2 NRR (mouse, UniProt O35516 1425-1679)
T4 construct: domain: NRR; It is split here into the two species; also called mouse NRR2
T4 sequence (looked up): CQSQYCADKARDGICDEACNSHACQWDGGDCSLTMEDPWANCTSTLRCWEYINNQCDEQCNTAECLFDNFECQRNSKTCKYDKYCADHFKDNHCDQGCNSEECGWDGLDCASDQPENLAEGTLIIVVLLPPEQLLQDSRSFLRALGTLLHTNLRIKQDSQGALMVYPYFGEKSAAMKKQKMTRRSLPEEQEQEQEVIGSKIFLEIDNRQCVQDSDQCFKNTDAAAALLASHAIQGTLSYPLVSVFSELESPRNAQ

B1: Antibody A-1, phage-displayed Fab clone (Fab, V domains shown)
VH: EVQLVESGGGLVQPGGSLRLSCAASGFTFSSYWIHWVRQAPGKGLEWVARINPPNGSAHYADSVKGRFTISADTSKNTAYLQMNSLRAEDTAVYYCARGSGFRWVMDYWGQGTLVTVSS
VL: DIQMTQSPSSLSASVGDRVTITCRASQDVSTAVAWYQQKPGKAPKLLIYSASFLYSGVPSRFSGSGSGTDFTLTISSLQPEDFATYYCQQSYTTPATFGQGTKVEIKR
B2: Antibody A-1 (antibody, IgG1, V domains shown)
VH: B1 VH
VL: B1 VL
notes: also called Antibody A-1-hIgG1
B3: Antibody A-3 (antibody, V domains shown)
VH: B1 VH with P54A, A58T, H59R
VL: B1 VL with Y92F, T93S
B4: Antibody A-3, phage-displayed Fab clone (Fab, V domains shown)
VH: B1 VH with P54A, A58T, H59R
VL: B1 VL with Y92F, T93S
B5: Antibody A (antibody, IgG1, V domains shown)
VH: B1 VH with P54S, A58T, H59N
VL: B1 VL with A96P
notes: also called anti-Notch1 NRR Antibody A; Antibody A-hIgG1
B6: Antibody A-2, phage-displayed Fab clone (Fab, V domains shown)
VH: B1 VH with G56R, A58N, H59Q
VL: B1 VL with S91F, A96S
B7: Antibody A-2 (antibody, IgG1, V domains shown)
VH: B1 VH with G56R, A58N, H59Q
VL: B1 VL with S91F, A96S
notes: also called Antibody A-2-hIgG1

Experiments:
[1] = target: T5, mFLAG-EGF34+NRR-His6, the murine Notch1 NRR immunogen (mouse Notch1 V1307-Q1723) (mouse, UniProt Q01705 1307-1723); experiment: competitive phage-binding ELISA; phage-displayed Fab pre-mixed with serial dilutions of soluble NRR1, then captured on NRR1-coated plate
T5 construct: N-terminal FLAG tag and C-terminal His tag, expressed in 293-F cells; also called mNotch1 NRR; mouse Notch1 NRR
T5 sequence (Q01705 other isoform, or with tags, fused parts or gaps): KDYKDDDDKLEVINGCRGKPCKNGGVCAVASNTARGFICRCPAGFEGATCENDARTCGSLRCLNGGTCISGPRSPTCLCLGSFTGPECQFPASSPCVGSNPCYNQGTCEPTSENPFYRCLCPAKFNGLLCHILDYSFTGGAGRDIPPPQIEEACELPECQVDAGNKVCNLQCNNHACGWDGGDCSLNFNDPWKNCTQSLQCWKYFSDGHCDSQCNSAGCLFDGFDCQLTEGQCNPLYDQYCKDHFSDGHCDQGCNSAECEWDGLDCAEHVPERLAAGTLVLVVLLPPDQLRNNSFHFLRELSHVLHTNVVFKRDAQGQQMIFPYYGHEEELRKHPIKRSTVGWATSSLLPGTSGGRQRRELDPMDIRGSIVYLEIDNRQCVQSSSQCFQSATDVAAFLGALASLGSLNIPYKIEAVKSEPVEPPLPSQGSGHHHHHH
Description: (§1) To identify the phage antibodies that bound to both human and murine Notch1 NRR, all unique clones were tested for binding to human and murine Notch1 by ELISA. The affinities of phage antibodies were ranked using single spot competition ELISA as described below in this Example. The phage antibody IC50 values were further determined using competitive phage-binding ELISA essentially described in Lee, C. V., et al. (2004) J Mol Biol 340, 1073-93. Briefly, NUNC 96 well Maxisorp immunoplates were coated overnight at 4° C. with 1 μg/ml human NRR1 or murine NRR1, and were blocked for 1 hour at room temperature with blocking buffer PBST (PBS and 1% BSA and 0.05% Tween 20). Phage was mixed with serial dilution of human or murine NRR1 at room temperature for 1 hour before the mixture was added to human and murine NRR1 coated plate. Bound phage were detected with anti-M13 HRP conjugates, developed with TMB substrate for approximately 5 minutes, quenched with 1M H₃PO₄, and read spectrophotometrically at 450 nm.
(§2) In comparison to the OD_{450 nm} reduction (%) of the well of parental phage (100%), clones that had the OD_{450 nm} reduction (%) lower than 50% were picked for sequence analysis. Unique clones were selected for phage preparation to determine binding affinity (phage IC50) by comparison with parental clones (Table 4).

[2] = target: T6, hFLAG-EGF34+NRR-His6 (101V), the human Notch1 NRR immunogen (human Notch1 V1307-Q1733) (human, UniProt P46531 1307-1733); experiment: as above
T6 construct: Secreted from Sf-9 cells; also called hNotch1 NRR; human NRR1
Description: as §1, §2

[3] = target: T5, mFLAG-EGF34+NRR-His6, the murine Notch1 …; experiment: SPR (BIAcore-3000), IgG captured on rabbit anti-human IgG, NRR1-ECD protein injected 3.9-500 nM, 25 C, 1:1 Langmuir
Description: (§3) To further characterize the binding affinity and binding kinetics of the anti-Notch1 NRR Mabs, surface plasmon resonance (SRP) measurement with a BIAcore™-3000 was used (BIAcore, Inc., Piscataway, N.J.). Briefly, carboxymethylated dextran biosensor chips (CM5, BIAcore Inc.) were activated with N-ethyl-N′-(3-dimethylaminopropyl)-carbodiimide hydrochloride (EDC) and N-hydroxysuccinimide (NHS) according to the supplier's instructions. Rabbit anti human antibody (Pierce) was diluted with 10 mM sodium acetate, pH 4.8, into 20 μg/ml before injection at a flow rate of 5 μl/minute to achieve approximately 3000 response units (RU) of coupled antibody. Next, 1M ethanolamine was injected to block unreacted groups. Anti-NRR1 mab (formatted as a full-length IgG) was captured by rabbit anti-human IgG coated on the chips to achieve approximately 200 response units (RU). For kinetics measurements, two-fold serial dilutions of human NRR1-ECD or murine NRR1-ECD proteins (3.9 nM to 500 nM) were injected in PBT buffer (PBS with 0.05% Tween 20) at 25° C. with a flow rate of 30 μl/min. Association rates (kₒₙ) and dissociation rates (koff) were calculated using a simple one-to-one Langmuir binding model (BIAcore Evaluation Software version 3.2). The equilibrium dissociation constant (KD) was calculated as the ratio koff/kₒₙ.
(§4) “NA” signifies that the measurement was not performed.

[4] = target: T6, hFLAG-EGF34+NRR-His6 (101V), the human …; experiment: as above
Description: as §3, §4

[5] = target: human Notch1 expressed on NIH-3T3 cells (human, UniProt P46531 19-2555); experiment: cell-based or functional assay
human Notch3 NRR = target: T7, human Notch3 NRR (human, UniProt Q9UM47 1378-1643, limits assumed); experiment: cross-reactivity test of the IgG (Table 3; method not detailed)
T7 construct: domain: NRR; It is split here into the two species; also called human NRR3
T7 sequence (Q9UM47 1378-1643 limits assumed): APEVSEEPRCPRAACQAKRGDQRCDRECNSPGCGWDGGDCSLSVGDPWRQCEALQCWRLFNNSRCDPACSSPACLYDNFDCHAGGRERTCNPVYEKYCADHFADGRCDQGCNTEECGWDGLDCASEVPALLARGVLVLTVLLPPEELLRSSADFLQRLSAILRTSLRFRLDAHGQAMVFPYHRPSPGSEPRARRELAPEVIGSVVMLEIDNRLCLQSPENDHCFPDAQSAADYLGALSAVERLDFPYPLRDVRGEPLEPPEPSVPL

human Notch4 NRR = target: T1, human Notch4 NRR; experiment: as above
murine Notch3 NRR = target: T8, murine Notch3 NRR (mouse, UniProt Q61982 1379-1643, limits assumed); experiment: as above
T8 construct: domain: NRR; It is split here into the two species; also called mouse NRR3
T8 sequence (Q61982 1379-1643 limits assumed): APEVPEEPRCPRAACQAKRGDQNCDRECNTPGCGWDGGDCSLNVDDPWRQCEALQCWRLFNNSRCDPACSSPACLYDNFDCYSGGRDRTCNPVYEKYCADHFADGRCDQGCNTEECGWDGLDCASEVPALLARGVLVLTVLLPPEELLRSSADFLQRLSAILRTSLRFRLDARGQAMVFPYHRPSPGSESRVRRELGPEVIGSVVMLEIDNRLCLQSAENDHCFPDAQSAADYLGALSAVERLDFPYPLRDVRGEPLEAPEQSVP

human Notch2 NRR = target: T2, human Notch2 NRR; experiment: as above
murine Notch4 NRR = target: T3, murine Notch4 NRR; experiment: as above
murine Notch2 NRR = target: T4, murine Notch2 NRR; experiment: as above

Binder	IC50 [1] [nM]	IC50 [2] [nM]	Kd [3] [nM]	koff [3] [s⁻¹]	kon [3] [M⁻¹ s⁻¹]	Kd [4] [nM]	koff [4] [s⁻¹]	kon [4] [M⁻¹ s⁻¹]	Co-culture blocking, IC50 [5] [ng/mL]	binding result (human Notch3 NRR)	binding result (human Notch4 NRR)	binding result (murine Notch3 NRR)	binding result (human Notch2 NRR)	binding result (murine Notch4 NRR)	binding result (murine Notch2 NRR)
B1	0.6	0.8	–	–	–	–	–	–	–	–	–	–	–	–	–
B2	–	–	3.88	0.00033	85000	3.43	0.00023	67000	–	–	–	–	–	–	–
B3	–	–	13	0.0012	92000	5.88	0.0004	68000	–	–	–	–	–	–	–
B4	2.5	0.5	–	–	–	–	–	–	–	–	–	–	–	–	–
B5	–	–	231	0.021	91000	134	0.011	82000	~100	no binding	no binding	no binding	no binding	no binding	no binding
B6	0.5	0.5	–	–	–	–	–	–	–	–	–	–	–	–	–
B7	–	–	3.09	0.00034	110000	2.53	0.00022	87000	–	–	–	–	–	–	–
